Source: the supplement of paper PMC12042874
± gives the uncertainty stated by the source.

Assay: amyloid nucleation score (Sup35N fusion, yeast selection) (log enrichment); library NNK2; higher = more nucleation; inactive = no reads after selection
Summary of the method: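 Psi-negative yeast expressed Sup35N fused to peptides of 20 random codons. They were induced 24 hours with 100 μM copper sulfate, grown 7 days at 30°C without adenine and uracil, and their plasmid inserts from input and output were Illumina-sequenced. The nucleation score is the DiMSum log enrichment of output over input reads, centred on the mode score of non-aggregating sequences. Sequences with under 100 input reads were excluded.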

In order of rising amyloid nucleation score:
1. SFLFVFSRTGFDCLVDFCFE  -1.76 ± 0.75
2. MQMLWYTMFFNSSRLVC  -1.58 ± 0.61
3. DNFFIMALHSSREVDMKNRS  -1.53 ± 1
4. DEPLWKLKFKFEWFIRTLVI  -1.37 ± 0.76
5. RRFTINFKDK  -1.2 ± 0.78
6. SSMRRGVIRRCNYKL  -0.992 ± 0.24
7. KFNFS  -0.908 ± 0.44
8. SCSRLVFRRVVSGIISLCME  -0.901 ± 0.79
9. NYYINDADGRLLARWLYKLF  -0.865 ± 0.25
10. YGLLHQFRSCKRI  -0.682 ± 0.29
11. CNNQRYVNNGITRNGRNDAG  -0.604 ± 0.76
12. GGCSTRWHKDVYDNGDNGDF  -0.545 ± 0.63
13. LWAYPLSMLWGKLFMDGMLL  -0.486 ± 0.27
14. SSRLALEVDKATKRVW  -0.474 ± 1.1
15. WLVMEATLAFIRYTRGSFSL  -0.432 ± 1.1
16. SFRLQIRV  -0.417 ± 0.23
17. RILFWSYA  -0.407 ± 0.48
18. DHLNV  -0.401 ± 0.63
19. LMGKGMSTLGDDGVFSRG  -0.378 ± 0.49
20. APFCSIVTTDVP  -0.363 ± 1.1
21. NQMYQNE  -0.352 ± 0.45
22. LNCTYN  -0.311 ± 0.79
23. TRYRLDACRGHAWYSVFFLM  -0.286 ± 0.49
24. FECVAFSAV  -0.272 ± 0.28
25. TRRARSDSDLMCRDRVSVDN  -0.249 ± 0.35
26. RYMGVMVYKAPPRRTWCGKV  -0.237 ± 0.41
27. TMCMPAHMPYQHVSYLDILT  -0.161 ± 1.1
28. TLNVRIAS  -0.124 ± 0.62
29. NQLRVLMTFFWPGMLNTPAV  -0.089 ± 1.1
30. LLPRDALFPPIFVIISECVF  -0.063 ± 0.45
31. FNIVQHVASCGWLTYTWSAA  -0.018 ± 1.1
32. LSRESTCIFSMNKDVFS  0.016 ± 1.1
33. YDKDFCDRRTEPKKFVLRHA  0.092 ± 0.4
34. DSAGASFNSCCGAE  0.122 ± 1.1
35. VKCKRCSASSFAIYVEYCCT  0.138 ± 0.17
36. IDCFIVISSMMSRVLYCGER  0.21 ± 0.25
37. DQAHRGSCDVS  0.214 ± 0.63
38. MYCYSHDQCESLGQRSFGDT  0.218 ± 0.8
39. IDQCIYDHVHNWVRRVDTRS  0.223 ± 0.18
40. LLCCMWFDRWLWTGLAWITV  0.247 ± 0.24
41. GIKHLKGTNDTSMYCHVSIV  0.298 ± 0.4
42. GQNTDVTCQRYERTM  0.329 ± 0.62
43. VGNIGPT  0.338 ± 0.46
44. RTHTKLGT  0.462 ± 0.42
45. IRSPDAVNSNCATPRMRVY  0.499 ± 0.36
46. NYGSTLVDWRVRFTRTRTWS  0.503 ± 0.3
47. CWFPWSSYLRNMFELPKTWL  0.529 ± 0.55
48. GSRPEWARVLGSLEIGCGAK  0.535 ± 0.3
49. LCSRSYGFRFYFSSGAQSVR  0.541 ± 0.66
50. SGIGY  0.561 ± 0.62
51. SGLRYFMFIISNSI  0.58 ± 0.22
52. FLCMFMFESWYDHNAVAVSY  0.66 ± 0.57
53. LAWITKSMFLL  0.672 ± 0.56
54. NVYSAYNLACFALLYCLLIW  0.691 ± 0.8
55. LTLIVNPLVNSPPGPQASLT  0.735 ± 0.23
56. YTGIESE  0.768 ± 0.21
57. RMSVRLKVVHLDAIIVLVLG  0.877 ± 0.8
58. ALDGVRNSEMGKRVSGVCEY  0.89 ± 0.28
59. CRSRT  0.978 ± 0.28
60. LPVGPLVRDNTWHRRVQRWL  1.11 ± 0.29
61. CGVFCLV  1.44 ± 0.41
62. DCFTRYGCAGKYRVGAQGSS  1.47 ± 0.47
63. FDDEMVRCIFNYRLSGYRPL  1.47 ± 0.22
64. FCTHSQARDQVNSNHTMALL  2.84 ± 0.064
65. YCLSSNVGVFKCFNGNVVYS  3.54 ± 0.081
66. FCLYFSKNF  3.63 ± 0.13
67. LYIYLNYFNTAVTFYGCVCS  3.94 ± 0.052
68. RINMPTYLLNWFSCHNYRFS  3.98 ± 0.093
69. VTGTYFLVLITCA  4.27 ± 0.065
70. LFGVSMSKADMSFWQDSGTR  4.77 ± 0.092
71. IDSMGFSMKSFDFRYNTSRW  5.02 ± 0.092
72. FGWGINRVYLVNM  5.04 ± 0.088
73. FTIFNKLCCVNYWVCILCYR  5.144 ± 0.049
74. SVSLNCSPLFFYFRRYKVSR  6.052 ± 0.038
75. NLNIFGLAMLCNRRGAYMRK  6.829 ± 0.039
76. IGFSPLCQYHYCAYGCY  7.695 ± 0.032
77. TYVCDNTESYTCLWLL  7.791 ± 0.038
78. KIINNSANGNIYVVNRVLTL  8.174 ± 0.046
79. VGVVVNFRASGPGFE  8.288 ± 0.061
80. RVMRCGCIDVQAILNVIVSQ  9.316 ± 0.039

In the case of AKVSSMVQECNLYLELETRL, the amyloid nucleation score is reported as “inactive”.
With FPKIQSKFSRDIFSDGNEYE the amyloid nucleation score was “inactive”.
In the case of FGTILGSLVLVIWI, the amyloid nucleation score is reported as “inactive”.
With FWHLYPQCQDWSDLQN the amyloid nucleation score was “inactive”.
For NSLRCSLIWMGQLPLSGTHV, the amyloid nucleation score was “inactive”.
In the case of TVAVGVIV, the amyloid nucleation score is reported as “inactive”.
